The record followed here is patent US20160251438A1 (LUDWIG INSTITUTE FOR CANCER RESEARCH, published 2016).

In assay [1] the target is T1, recombinant soluble human GARP-TGFβ1 complex (human, UniProt Q14392 20-628; P01137 30-390).
T1 construct: co-expressed in HEK293E, purified by the Strep-Tag; TGFβ consists of LAP and mature TGFβ; also called shGARP-TGFβ; rhGARP-TGFβ
Description: SPR (Biacore), hGARP-TGFβ1 immobilised.

Assay [2] concerns the target T2, human TGF-β1 (latent) (human, UniProt P01137 30-390).
T2 construct: from transfected hTGFB1; also called hTGF-β1; hTGFB1
In words: FACS, 293T + hTGFB1 only [cont.) B]. The text has this:
No latent TGF-β is detected on their surface with an anti-LAP antibody. Transfection of GARP or TGFB1 alone induces no or low surface LAP, respectively, whereas co-transfection of GARP and TGFB1 induces high surface LAP as a result of latent TGF-β1 binding and presentation by GARP (FIG. 14, part B, left histograms).
(In general: A flow cytometer gives signals particle by particle.)

The target of assay [3] is T3, mGARP/hTGF-β1 complex on the cell surface (mouse; human, UniProt G3XA59 18-663).
T3 construct: whole, on cells; also called cells transfected with hTGFB1 and mGARP
Description: FACS, 293T, HA-tagged mouse GARP + hTGFB1.

The target of assay [4] is GARP M111T/A112G/T113M / TGF-β1 complex (human, UniProt Q14392 20-662; P01137 30-390). In words: flow cytometry titration on transfected 293T cells; grade of Reduced avidity read by footnote 3. The method, then:
(§1) Intensities of staining at each concentration of antibody relative to the maximal intensity measured at 5 μg/ml were determined as follows:
(§2) The relative staining intensities were plotted according to the concentration of antibody used for staining, and a non-linear regression analysis was used with the Prism software to determine an EC₅₀ value for binding of the antibody to the WT and to each of the various mutant GARP/TGF-β1 complexes. If the ratio between the EC₅₀ measured on the mutant and the EC₅₀ measured on the WT was >2, the mutation was considered to induce a reduced avidity for binding by the antibody. The ratio of EC₅₀ (mutant vs WT) for MHG-8 and LHG-10 are indicated below each mutation on FIG. 19, parts A and B, respectively.

In assay [5] the target is GARP R143Y / TGF-β1 complex (human, UniProt Q14392 20-662; P01137 30-390). Described as above. The method, then:
as §1, §2

Assay [6] deals with GARP R170A / TGF-β1 complex (human, UniProt Q14392 20-662; P01137 30-390). Described as above. The method, then: as §1, §2
Assay [7] deals with GARP E189A / TGF-β1 complex (human, UniProt Q14392 20-662; P01137 30-390). The description is as above. The method, then: as §1, §2
Assay [8] concerns the target GARP / TGF-β1 H270Y complex (human, UniProt Q14392 20-662; P01137 30-390). The description is as above. The method, then: as §1, §2
Assay [9] addresses GARP / TGF-β1 Q272Y complex (human, UniProt Q14392 20-662; P01137 30-390). Described as above. The method, then:
as §1, §2

Assay [10] concerns the target GARP / TGF-β1 Y336A complex (human, UniProt Q14392 20-662; P01137 30-390). The description is as above. The method, then: as §1, §2
The target of assay [11] is GARP / TGF-β1 S337A complex (human, UniProt Q14392 20-662; P01137 30-390). The assay is described as above. The method, then: as §1, §2
Assay [12] has as its target GARP / TGF-β1 K338E complex (human, UniProt Q14392 20-662; P01137 30-390). The description is as above. The method, then: as §1, §2
The target of assay [13] is GARP Y137H / TGF-β1 complex (human, UniProt Q14392 20-662; P01137 30-390). Description: flow cytometry on transfected 293T cells, 5 ug/ml; grade of Loss of binding read by footnote 2 (error bar crosses the 50% threshold). The text has this: (§3) Resolution of the crystal structure of MHG-8 Fab/GARP/TGF-β1 complexes and analysis with the CONTACT software allowed the identification of 22 amino-acids in GARP, 8 amino-acids in LAP and 6 amino-acids in mature TGF-β1 that are located less than 5 Å away from an amino-acid of the light or heavy chain of the MHG-8 Fab (Tables 7a, b and c, and Table 8). Directed mutagenesis was used to construct plasmids encoding HA-tagged forms of GARP or TGF-β1 that are mutated at one, two, or three of these 36 positions (all mutations constructed are indicated in Table 8). […] Antibodies were used at a saturating concentration of 5 μg/ml for labeling. Binding of each antibody to a given mutant GARP/TGF-β1 complex was compared to their binding to wild type (WT) complexes, by determining an I_{m/wt} value (i.e. intensity of binding to mutant by comparison to WT). This value was calculated as follows: I_{m/wt} of antibody X=[Geom on mutant−Geom on control]/[Geom on WT−Geom on control]
(§4) The level of residual binding of anti-GARP or anti-LAP antibodies to each mutant was then calculated by comparison to WT, taking into account the expression levels of mutant and WT forms as measured with anti-HA antibodies. Residual binding was calculated as follows: Residual binding by an anti-GARP or anti-LAP antibody=[I_{m/wt} with anti-GARP or anti-LAP antibody]/[I_{m/wt} with anti-HA antibody]

For assay [14], the target named is GARP R163E/T165A / TGF-β1 complex (human, UniProt Q14392 20-662; P01137 30-390). Described as above.
Text: as §3, §4

T1 sequence (Q14392 other isoform, or with tags, fused parts or gaps limits assumed, chain 1 of 2): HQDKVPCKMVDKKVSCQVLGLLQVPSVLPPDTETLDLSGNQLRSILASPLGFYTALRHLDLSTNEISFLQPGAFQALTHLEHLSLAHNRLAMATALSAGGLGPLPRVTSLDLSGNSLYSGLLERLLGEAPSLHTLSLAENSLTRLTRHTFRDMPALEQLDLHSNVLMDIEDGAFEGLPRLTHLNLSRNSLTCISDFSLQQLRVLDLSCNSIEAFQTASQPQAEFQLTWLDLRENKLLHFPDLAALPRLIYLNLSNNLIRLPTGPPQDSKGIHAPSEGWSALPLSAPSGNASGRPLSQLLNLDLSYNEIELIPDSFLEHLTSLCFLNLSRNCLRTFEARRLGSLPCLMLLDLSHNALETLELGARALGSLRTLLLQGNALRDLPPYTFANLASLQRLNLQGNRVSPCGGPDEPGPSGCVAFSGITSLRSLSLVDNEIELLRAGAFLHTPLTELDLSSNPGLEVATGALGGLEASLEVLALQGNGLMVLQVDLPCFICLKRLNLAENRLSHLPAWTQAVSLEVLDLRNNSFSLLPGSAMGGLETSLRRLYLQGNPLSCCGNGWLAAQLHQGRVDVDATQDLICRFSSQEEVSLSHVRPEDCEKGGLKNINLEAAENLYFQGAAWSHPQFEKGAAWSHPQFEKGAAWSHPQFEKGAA
T1 sequence (P01137 30-390 limits assumed, chain 2 of 2): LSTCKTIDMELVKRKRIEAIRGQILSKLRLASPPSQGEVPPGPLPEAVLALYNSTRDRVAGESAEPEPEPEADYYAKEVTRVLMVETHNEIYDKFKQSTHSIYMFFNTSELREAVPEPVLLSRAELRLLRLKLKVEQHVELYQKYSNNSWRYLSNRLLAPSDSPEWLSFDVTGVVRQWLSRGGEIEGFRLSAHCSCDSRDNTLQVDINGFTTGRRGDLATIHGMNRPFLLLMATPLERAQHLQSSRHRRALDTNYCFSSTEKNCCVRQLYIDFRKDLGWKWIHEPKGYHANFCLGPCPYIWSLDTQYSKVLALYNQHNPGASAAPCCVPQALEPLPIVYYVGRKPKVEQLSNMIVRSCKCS
T3 sequence (G3XA59 18-663, chain 1 of 2): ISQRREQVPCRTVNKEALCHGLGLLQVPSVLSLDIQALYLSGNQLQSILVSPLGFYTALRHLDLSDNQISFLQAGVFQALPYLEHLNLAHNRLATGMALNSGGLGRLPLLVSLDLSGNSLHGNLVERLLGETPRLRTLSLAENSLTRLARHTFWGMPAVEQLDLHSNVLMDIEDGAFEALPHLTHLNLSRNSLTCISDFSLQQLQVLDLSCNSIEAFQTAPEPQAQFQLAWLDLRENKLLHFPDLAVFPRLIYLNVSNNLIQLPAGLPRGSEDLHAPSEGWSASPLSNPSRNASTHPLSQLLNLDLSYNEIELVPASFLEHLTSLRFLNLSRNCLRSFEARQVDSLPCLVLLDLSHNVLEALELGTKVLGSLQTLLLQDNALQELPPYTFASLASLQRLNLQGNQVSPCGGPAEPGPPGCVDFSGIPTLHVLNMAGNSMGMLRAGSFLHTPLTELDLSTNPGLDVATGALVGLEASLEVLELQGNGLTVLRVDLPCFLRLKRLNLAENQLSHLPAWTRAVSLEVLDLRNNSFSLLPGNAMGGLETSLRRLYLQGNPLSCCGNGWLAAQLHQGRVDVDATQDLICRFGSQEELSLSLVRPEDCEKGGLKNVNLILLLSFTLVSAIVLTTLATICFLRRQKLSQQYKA
T3 sequence (chain, as listed by the source, chain 2 of 2): as the sequence (P01137 30-390 limits assumed, chain 2 of 2) above
Chain of GARP E189A / TGF-β1 complex (Q14392 20-662 E189A limits assumed, chain 1 of 2): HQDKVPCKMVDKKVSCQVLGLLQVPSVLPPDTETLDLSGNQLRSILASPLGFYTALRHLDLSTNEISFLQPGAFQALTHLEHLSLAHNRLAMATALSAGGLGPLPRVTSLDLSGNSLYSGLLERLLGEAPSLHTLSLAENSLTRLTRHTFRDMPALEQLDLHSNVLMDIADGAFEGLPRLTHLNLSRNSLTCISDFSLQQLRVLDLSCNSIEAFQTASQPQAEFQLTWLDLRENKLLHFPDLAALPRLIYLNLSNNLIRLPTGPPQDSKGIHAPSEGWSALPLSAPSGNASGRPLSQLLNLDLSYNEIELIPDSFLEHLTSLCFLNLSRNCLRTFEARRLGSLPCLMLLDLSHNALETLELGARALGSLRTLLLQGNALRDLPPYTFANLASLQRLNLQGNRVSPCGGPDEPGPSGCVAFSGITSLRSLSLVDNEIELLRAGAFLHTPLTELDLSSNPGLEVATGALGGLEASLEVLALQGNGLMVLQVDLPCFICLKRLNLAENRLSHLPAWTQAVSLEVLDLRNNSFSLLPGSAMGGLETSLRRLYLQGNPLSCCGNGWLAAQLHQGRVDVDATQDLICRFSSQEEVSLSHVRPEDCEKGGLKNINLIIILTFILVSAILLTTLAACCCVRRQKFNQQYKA
Chain of GARP E189A / TGF-β1 complex (P01137 30-390 limits assumed, chain 2 of 2): as the sequence (P01137 30-390 limits assumed, chain 2 of 2) above
Chain of GARP M111T/A112G/T113M / TGF-β1 complex (Q14392 20-662 M111T/A112G/T113M limits assumed, chain 1 of 2): as the sequence (Q14392 20-662 E189A limits assumed, chain 1 of 2) above, with M92T, A93G, T94M, A170E counted along it
Chain of GARP M111T/A112G/T113M / TGF-β1 complex (P01137 30-390 limits assumed, chain 2 of 2): as the sequence (P01137 30-390 limits assumed, chain 2 of 2) above
T2 sequence (P01137 30-390 limits assumed): as the sequence (P01137 30-390 limits assumed, chain 2 of 2) above

B1: LHG-10 (antibody, human IgG1, V domains shown)
VH: EVQLVQPGAELRNSGASVKVSCKASGYRFTSYYIDWVRQAPGQGLEWMGRIDPEDGGTKYAQKFQGRVTFTADTSTSTAYVELSSLRSEDTAVYYCARNEWETVVVGDLMYEYEYWGQGTQVTVSS
VL: DIQMTQSPTSLSASLGDRVTITCQASQSISSYLAWYQQKPGQAPKLLIYGASRLQTGVPSRFSGSGSGTSFTLTISGLEAEDAGTYYCQQYDSLPVTFGQGTKVELK
notes: llama-derived V regions in a full human IgG1
On to B1, for which the dissociation constant (Kd) (usually the equilibrium constant for the complex coming apart) in [1] turned out to be 0.131 nM. Also, the “fold improvement of KD (reference LHG-10)” value in [1] came out at 1 fold. The “fold improvement of ka (reference LHG-10)” value in assay [1] is 1 fold. Moreover, the “fold improvement of kd (reference LHG-10)” value in assay [1] is 1 fold. Further, the koff (as a rule, a measure of how fast the partners let go of each other) in assay [1] is 3.12e-05 s⁻¹. Also, in assay [1], the kon – broadly, the second-order rate constant of association – came to 239000 M⁻¹ s⁻¹. For the same molecule, the binding result in assay [2] and in assay [3] was “no binding” in each case. The “ratio of EC50 (mutant vs WT)” value in assay [4], in [5], in assay [6], in [7], in [8] and in [9] was no more than 2 ratio in each case. Moreover, the “ratio of EC50 (mutant vs WT)” value in assay [10], in assay [11] and in [12] was no more than 2 ratio each time. In addition, the “residual binding on mutant by comparison to WT” value in [13] and in assay [14] was no less than 50% throughout.
